Experimental data from paper PMC8640019 (Nature Communications, 2021).
Values joined by “and” are separate entries in the source; they are usually repeats but may differ in a detail not shown here. Equal entries are not always repeated. Square brackets hold non-standard residues; d marks the D form. Ends that are not written are not given here. pY = N[C@@H](Cc1ccc(OP(=O)(O)O)cc1)C(=O)O

Tests used:
SOCS2-Elo B/C + F3 [1] = molecular target: T1, SOCS2-Elo B/C + F3 (human, UniProt O14508 32-198; Q15370 1-118; Q15369 17-112); assay: ITC
SOCS2-Elo B/C + F3 [2] = molecular target: T1, SOCS2-Elo B/C + F3; assay: ITC; remark: listed apart in the source
F3 peptide = assay: NMR titration

T1 sequence (Q15370 whole entry, chain 2 of 2): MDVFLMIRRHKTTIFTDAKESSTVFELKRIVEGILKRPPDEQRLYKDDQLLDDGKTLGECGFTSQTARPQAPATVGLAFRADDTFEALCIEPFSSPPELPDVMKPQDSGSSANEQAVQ
T1 sequence (Q15369 17-112, chain 3 of 2): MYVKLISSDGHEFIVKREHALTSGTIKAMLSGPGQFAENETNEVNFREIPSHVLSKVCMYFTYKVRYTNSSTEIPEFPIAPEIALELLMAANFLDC

B1: Cullin5 N-terminal domain (Cul5^1-384) (domain or fragment)
chain: MATSNLLKNKGSLQFEDKWDFMRPIVLKLLRQESVTKQQWFDLFSDVHAVCLWDDKGPAKIHQALKEDILEFIKQAQARVLSHQDDTALLKAYIVEWRKFFTQCDILPKPFCQLEITLMGKQGSNKKSNVEDSIVRKLMLDTWNESIFSNIKNRLQDSAMKLVHAERLGEAFDSQLVIGVRESYVNLCSNPEDKLQIYRDNFEKAYLDSTERFYRTQAPSYLQQNGVQNYMKYADAKLKEEEKRALRYLETRRECNSVEALMECCVNALVTSFKETILAECQGMIKRNETEKLHLMFSLMDKVPNGIEPMLKDLEEHIISAGLADMVAAAETITTDSEKYVEQLLTLFNRFSKLVKEAFQDDPRFLTARDKAYKAVVNDATIFK
SOCS2-Elo B/C + F3 [1]
  Kd: 41 nM
SOCS2-Elo B/C + F3 [2]
  stoichiometry N: 0.81

## STASTVQ[pY]STVVHSG [gp130 pY757 peptide]
SOCS2-Elo B/C + F3 [2]
  stoichiometry N: 0.738 and 0.632

B2: SOCS2-SH2^32–159 (domain or fragment, human, UniProt O14508 32-159, looked up)
chain: QAARLAKALRELGQTGWYWGSMTVNEAKEKLKEAPEGTFLIRDSSHSDYLLTISVKTSAGPTNLRIEYQDGKFRLDSIICVKSKLKQFDSVVHLIDYYVQMCKDKRTGPEAPRNGTVHLYLTKPLYTS
F3 peptide
  binding result: binds
